The results in this text go back to paper PMC5577365 (Nature chemical biology, 2017).

For test [1], the target named is wild-type Abl1 (ABL1 SH3 domain) (human, UniProt P00519 61-121). In words: fluorescence polarisation. (In general: Fluorescence polarisation rises when a labelled molecule tumbles more slowly, as on binding a larger partner.)
The target in test [2] is Abl1-Pmp52 (ABL1 SH3 domain with Pmp at position 52) (human, 4-phosphomethyl-L-phenylalanine (Pmp) at position 52). Briefly: fluorescence polarisation.

What is called Kd is the constant that tells how readily two partners part at equilibrium. High values mean lower affinity, low ones higher affinity.

Ends that are not written are not given here.

Chain of wild-type Abl1 (ABL1 SH3 domain) (P00519 whole entry, looked up, the tested form may be a part): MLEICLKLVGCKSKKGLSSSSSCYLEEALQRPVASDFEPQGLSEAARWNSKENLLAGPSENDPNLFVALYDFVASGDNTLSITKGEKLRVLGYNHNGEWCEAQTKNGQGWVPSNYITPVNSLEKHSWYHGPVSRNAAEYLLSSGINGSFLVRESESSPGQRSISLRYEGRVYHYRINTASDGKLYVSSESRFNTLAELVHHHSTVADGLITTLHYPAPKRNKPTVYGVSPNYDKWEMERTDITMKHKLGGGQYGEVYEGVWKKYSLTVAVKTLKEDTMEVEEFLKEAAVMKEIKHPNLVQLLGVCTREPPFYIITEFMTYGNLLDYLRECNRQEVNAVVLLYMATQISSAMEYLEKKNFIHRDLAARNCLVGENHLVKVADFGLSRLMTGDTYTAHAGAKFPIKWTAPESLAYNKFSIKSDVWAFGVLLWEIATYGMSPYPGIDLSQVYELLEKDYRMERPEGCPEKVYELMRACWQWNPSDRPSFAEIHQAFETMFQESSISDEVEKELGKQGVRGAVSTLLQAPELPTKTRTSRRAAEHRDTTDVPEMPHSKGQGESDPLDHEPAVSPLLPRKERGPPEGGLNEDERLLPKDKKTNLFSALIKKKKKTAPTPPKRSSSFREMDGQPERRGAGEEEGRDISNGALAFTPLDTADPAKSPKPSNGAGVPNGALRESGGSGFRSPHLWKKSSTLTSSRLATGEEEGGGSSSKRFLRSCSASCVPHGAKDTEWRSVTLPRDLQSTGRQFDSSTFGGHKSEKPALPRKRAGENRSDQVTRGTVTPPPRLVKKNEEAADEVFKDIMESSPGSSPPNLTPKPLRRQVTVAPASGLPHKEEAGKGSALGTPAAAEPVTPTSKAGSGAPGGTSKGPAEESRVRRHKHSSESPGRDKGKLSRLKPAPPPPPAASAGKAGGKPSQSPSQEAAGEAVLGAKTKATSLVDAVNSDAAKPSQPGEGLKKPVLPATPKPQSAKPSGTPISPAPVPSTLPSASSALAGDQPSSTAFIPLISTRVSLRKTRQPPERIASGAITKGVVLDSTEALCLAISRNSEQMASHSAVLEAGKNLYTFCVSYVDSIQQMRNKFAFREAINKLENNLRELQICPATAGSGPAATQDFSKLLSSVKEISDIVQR

B1: 3BP2 peptide (FAM labeled) (peptide)
chain: PPAYPPPPVP
modifications: also: FAM label, position not given here
On to B1, for which the Kd in test [1] and in test [2] was 5 ± 0.8 µM in each case.
